Numbering of substitutions follows the chain as printed. Where no end group is shown, it is not given here. [ ]: non-standard residue; d: D form. Met(O) = CS(=O)CC[C@H](N)C(=O)O
T1: human GPR7 (human, UniProt P48145 1-328)
T1 sequence: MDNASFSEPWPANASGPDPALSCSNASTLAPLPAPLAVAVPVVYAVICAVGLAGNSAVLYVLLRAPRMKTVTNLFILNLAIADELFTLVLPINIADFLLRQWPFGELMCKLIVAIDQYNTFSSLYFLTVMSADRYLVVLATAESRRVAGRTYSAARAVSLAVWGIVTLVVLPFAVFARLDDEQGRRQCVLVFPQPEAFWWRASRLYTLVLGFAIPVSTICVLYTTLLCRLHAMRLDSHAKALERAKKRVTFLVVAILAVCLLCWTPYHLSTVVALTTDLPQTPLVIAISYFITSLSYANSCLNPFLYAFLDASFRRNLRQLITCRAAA

B1: human GPR8 ligand (9-23) (peptide)
peptide: RYHTVGRAAGLLMGL
B2: [N-Acetyl-Tyr2]-human GPR8 ligand (2-23) (peptide)
peptide: Ac-YKHVASPRYHTVGRAAGLLMGL
B3: [Nα-Acetyl-Trp1]-human GPR8 ligand (1-23) (peptide)
peptide: XYKHVASPRYHTVGRAAGLLMGL
modifications: Nα-acetyl on Trp1
B4: Fmoc-human GPR8 ligand (1-23) (peptide)
peptide: XYKHVASPRYHTVGRAAGLLMGL
modifications: N-terminal Fmoc (N-9-fluorenylmethoxycarbonyl) on Trp1
B5: human GPR8 ligand (1-19) (peptide)
peptide: WYKHVASPRYHTVGRAAGL
B6: [N-3-Indolepropanyl-Tyr2]-human GPR8 ligand (2-23) (peptide)
peptide: {3‑indolepropanoyl}-YKHVASPRYHTVGRAAGLLMGL
B7: human GPR8 ligand (1-23) (peptide)
peptide: WYKHVASPRYHTVGRAAGLLMGL
B8: human GPR8 ligand (1-30) (peptide)
peptide: WYKHVASPRYHTVGRAAGLLMGLRRSPYLW
B9: mouse homolog to hGPR8L (1-30) (peptide)
peptide: B8 peptide with A17S, L29Q
notes: also called mouse homologue of the GPR8 ligand peptide (30 residues)
B10: porcine homolog to hGPR8L (1-30) (peptide)
peptide: B8 peptide with V5T, L29M
notes: also called porcine homologue of the GPR8 ligand peptide (30 residues)
B11: rat homolog to hGPR8L (1-30) (peptide)
peptide: B8 peptide with A17S
notes: also called rat homologue of the GPR8 ligand peptide (30 residues)
B12: human GPR8 ligand (1-20) (peptide)
peptide: WYKHVASPRYHTVGRAAGLL
B13: human GPR8 ligand (2-23) (peptide)
peptide: YKHVASPRYHTVGRAAGLLMGL
B14: human GPR8 ligand (1-18) (peptide)
peptide: WYKHVASPRYHTVGRAAG
B15: oxidized human GPR8 ligand (1-23) (peptide)
peptide: WYKHVASPRYHTVGRAAGLLXGL
modifications: Met (O) (methionine sulfoxide) at position 21
B16: oxidized porcine GPR8 ligand (1-23) (peptide)
peptide: WYKHTASPRYHTVGRAAGLL[Met(O)]GL
B17: [D-Trp1]-human GPR8 ligand (1-23) (peptide)
peptide: XYKHVASPRYHTVGRAAGLLMGL
modifications: D-Trp at position 1
B18: human GPR8 ligand (4-23) (peptide)
peptide: HVASPRYHTVGRAAGLLMGL
B19: mouse GPR8 ligand (1-23) (peptide)
peptide: WYKHVASPRYHTVGRASGLLMGL
notes: also called mouse homolog to hGPR8L (1-23)
B20: porcine GPR8 ligand (1-23) (peptide)
peptide: WYKHTASPRYHTVGRAAGLLMGL
B21: rat GPR8 ligand (1-23) (peptide)
peptide: WYKHVASPRYHTVGRASGLLMGL
notes: also called rat homolog to hGPR8L (1-23)

Columns and labels:
human GPR7 [1] = target: T1, human GPR7; experiment: cell-based or functional assay
human GPR8 = human GPR8 (human, UniProt P48146 1-333); experiment: cell-based or functional assay
Chain of human GPR8 (P48146 whole entry): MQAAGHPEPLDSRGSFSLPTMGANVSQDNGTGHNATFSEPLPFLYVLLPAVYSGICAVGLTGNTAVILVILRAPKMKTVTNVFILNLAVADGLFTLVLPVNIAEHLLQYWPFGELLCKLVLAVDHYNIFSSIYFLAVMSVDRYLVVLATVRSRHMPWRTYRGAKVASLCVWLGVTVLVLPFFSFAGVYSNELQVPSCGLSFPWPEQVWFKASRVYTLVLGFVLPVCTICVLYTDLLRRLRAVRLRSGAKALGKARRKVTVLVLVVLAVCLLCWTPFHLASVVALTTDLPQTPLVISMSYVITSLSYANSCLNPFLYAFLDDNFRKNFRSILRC

human GPR7 [2] = target: T1, human GPR7; experiment: cell-based or functional assay; remark: listed apart in the source
human GPR7 [3] = target: T1, human GPR7; experiment: competition with [125I-Tyr10]-hGPR8L (1-23) as tracer, membrane fraction of human GPR7-expressing CHO cells
Procedure: The thus prepared cell membrane fraction was diluted in various concentrations with an assay buffer (25 mM Tris-HCl, 5 mM EDTA, 0.05% CHAPS (3-[(3-choramidopropyl)dimethylammonio]-1-propanesulfonate), 0.1% BSA, 0.5 mM PMSF, 1 μg/ml pepstatin, 20 μg/ml leupeptin and 4 μg/ml E-64, pH 7.4). Then, a 200 μl aliquot of the dilution was dispensed into a propylene-made testing tube (Falcon 2053). In order to assay for the total binding, 2 μl of DMSO and 2 μl of 8 nM [¹²⁵I-Tyr¹⁰]-hGPR8L (1-23) was added to the membrane fraction solution. Also, the non-specific binding was assayed by adding 2 μl of a DMSO solution of 1 mM hGPR8L (1-23) and 2 μl of 8 nM [¹²⁵I-Tyr¹⁰]-hGPR8L (1-23) to the membrane fraction solution. After reacting at 25° C. for 75 minutes, the reaction solution was suction-filtrated through a polyethyleneimine-treated Whatman glass filter (GF-F), and the filter was washed twice with ˜1.5 ml of a wash buffer (25 mM Tris-HCl, 5 mM EDTA, 0.05% CHAPS, 0.1% BSA, pH 7.4). After the filtration, the residual radioactivity remained on the filter paper was measured with a γ-counter, and the specific binding was estimated by subtracting the non-specific binding from the total binding.
It could also be verified that the binding inhibition of [¹²⁵I-Tyr¹⁰]-hGPR8L (1-23) against the human GPR7-expressed CHO cell membrane fraction was noted as described above, when rat and mouse homologs (SEQ ID NO:73 and SEQ ID NO:91) to hGPR8L (1-23) and porcine, rat and mouse homologs (SEQ ID NO:57, SEQ ID NO:74 and SEQ ID NO:92) to hGPR8L (1-30).

Binder | GTPγS-Binding promoting activity (EC50 nM) (human GPR7 [1]) | GTPγ S binding promoting activity (EC50 nM) (human GPR8) | intracellular cAMP production suppressing activity (IC50) (human GPR7 [2]) | binding result (human GPR7 [3])
B1 | > 10000 nM | 4200 nM |  | 
B2 | 7000 nM | 7200 nM |  | 
B3 | 1.5 nM | 14 nM |  | 
B4 | 6.6 nM | 240 nM |  | 
B5 | 84 nM | 1000 nM |  | 
B6 | 0.85 nM | 5 nM |  | 
B7 | 0.74 nM |  | 0.025 nM | 
B8 | 0.67 nM |  |  | 
B9 |  |  |  | binds
B10 |  |  |  | binds
B11 |  |  |  | binds
B12 | 0.88 nM | 0.86 nM |  | 
B13 | 7410 nM | 3900 nM |  | 
B14 | 6200 nM | > 10000 nM |  | 
B15 | 1.6 nM | 1.4 nM |  | 
B16 | 1.2 nM | 0.73 nM |  | 
B17 | 2.3 nM | 7.1 nM |  | 
B18 | > 10000 nM | 6700 nM |  | 
B19 |  |  |  | binds
B20 | 0.35 nM | 1.5 nM |  | 
B21 |  |  |  | binds

— patent US20040110231A1 (Takeda / Millennium, published 2004)
